Test results taken from publication PMC2119551.

Molecular target: aFGF receptors on the surface of NBT-II cells (rat (endogenous in NBT-II))
Test: radioligand binding

“Human recombinant acidic FGF (from UniProt P05230 1-155) (ligand)” gave a cpm bound (cells preincubated with 100 ng/ml pertussis toxin) of 11800 cpm, a cpm bound (cells preincubated with 10 ug/ml cholera toxin) of 13600 cpm and a cpm bound (cells preincubated with 100 uM forskolin) of 14300 cpm. For the same substance, the cpm bound (untreated cells) was 12700 cpm.
